Measured values published in patent publication US20240117018A1.

Legend:
Experiment in all cases: cell-based or functional assay
[1] = target: HIV-1 Env of pseudovirus 1012_11_TC21_3257 (HIV-1)
[2] = target: HIV-1 Env of pseudovirus 191084 B7-19 (HIV-1)
[3] = target: HIV-1 Env of pseudovirus 191955_A11 (HIV-1)
[4] = target: HIV-1 Env of pseudovirus 211-9 (HIV-1)
[5] = target: HIV-1 Env of pseudovirus 249M B10 (HIV-1)
[6] = target: HIV-1 Env of pseudovirus 6244_13_B5_4576 (HIV-1)
[7] = target: HIV-1 Env of pseudovirus 6535.3 (HIV-1)
[8] = target: HIV-1 Env of pseudovirus 7030102001E5(Rev-) (HIV-1)
[9] = target: HIV-1 Env of pseudovirus 89-F1_2_25 (HIV-1)
[10] = target: HIV-1 Env of pseudovirus BJOX009000.02.4 (HIV-1)
[11] = target: HIV-1 Env of pseudovirus BJOX010000.06.2 (HIV-1)
[12] = target: HIV-1 Env of pseudovirus C4118.c09 (HIV-1)
[13] = target: HIV-1 Env of pseudovirus CAP45.2.00.G3 (HIV-1)
[14] = target: HIV-1 Env of pseudovirus CNE19 (HIV-1)
[15] = target: HIV-1 Env of pseudovirus CNE53 (HIV-1)
[16] = target: HIV-1 Env of pseudovirus CNE58 (HIV-1)
[17] = target: HIV-1 Env of pseudovirus CNE8 (HIV-1)
[18] = target: HIV-1 Env of pseudovirus Ce0682_E4 (HIV-1)
[19] = target: HIV-1 Env of pseudovirus Ce1086_B2 (HIV-1)
[20] = target: HIV-1 Env of pseudovirus Ce1172_H1 (HIV-1)
[21] = target: HIV-1 Env of pseudovirus Ce2060_G9 (HIV-1)
[22] = target: HIV-1 Env of pseudovirus Ce703010054_2A2 (HIV-1)
[23] = target: HIV-1 Env of pseudovirus HIV-001428-2.42 (HIV-1)
[24] = target: HIV-1 Env of pseudovirus P1981_C5_3 (HIV-1)
[25] = target: HIV-1 Env of pseudovirus Q23.17 (HIV-1)
[26] = target: HIV-1 Env of pseudovirus Q461.e2 (HIV-1)
[27] = target: HIV-1 Env of pseudovirus RHPA4259.7 (HIV-1)
[28] = target: HIV-1 Env of pseudovirus SC422661.8 (HIV-1)
[29] = target: HIV-1 Env of pseudovirus T250-4 (HIV-1)
[30] = target: HIV-1 Env of pseudovirus T255-34 (HIV-1)
[31] = target: HIV-1 Env of pseudovirus THRO4156.18 (HIV-1)
[32] = target: HIV-1 Env of pseudovirus TRJO4551.58 (HIV-1)
[33] = target: HIV-1 Env of pseudovirus WEAU_d15_410_787 (HIV-1)
[34] = target: HIV-1 Env of pseudovirus WITO4160.33 (HIV-1)
[35] = target: HIV-1 Env of pseudovirus ZM214M.PL15 (HIV-1)
[36] = target: HIV-1 Env of pseudovirus ZM233M.PB6 (HIV-1)
[37] = target: HIV-1 Env of pseudovirus ZM53M.PB12 (HIV-1)

For PGT128 (antibody), which neutralization IC50 [1] is on record?
The neutralization IC50 was 0.011 µg/mL.

What about the neutralization IC80 [1] of the same substance?
Its neutralization IC80 is 0.033 µg/mL.

What about the neutralization IC50 [2] of the same substance?
The neutralization IC50 was 0.022 µg/mL.

What about the neutralization IC80 [2] of the same substance?
Its neutralization IC80 is 0.152 µg/mL.

What about the neutralization IC50 [3] of the same substance?
Its neutralization IC50 is 14.2 µg/mL.

What about the neutralization IC80 [3] of the same substance?
Its neutralization IC80 is > 50 µg/mL.

What about the IC50 (Titer in TZM.bl cells) [4] of the same substance?
Its IC50 (Titer in TZM.bl cells) is 0.062 µg/mL.

What about the IC80 (Titer in TZM.bl cells) [4] of the same substance?
The IC80 (Titer in TZM.bl cells) was 0.215 µg/mL.

What about the neutralization IC50 [5] of the same substance?
Its neutralization IC50 is 7.87 µg/mL.

What about the neutralization IC80 [5] of the same substance?
Its neutralization IC80 is > 50 µg/mL.

And the neutralization IC50 [6]?
The neutralization IC50 was 0.02 µg/mL.

And the neutralization IC80 [6]?
The neutralization IC80 was 0.076 µg/mL.

And the neutralization IC50 [7]?
Its neutralization IC50 is 4 ng/mL.

What about the neutralization IC80 [7] of the same substance?
The neutralization IC80 was 0.016 µg/mL.

What about the neutralization IC50 [8] of the same substance?
The neutralization IC50 was 7 ng/mL.

What about the neutralization IC80 [8] of the same substance?
Its neutralization IC80 is 0.022 µg/mL.

What about the IC50 (Titer in TZM.bl cells) [9] of the same substance?
The IC50 (Titer in TZM.bl cells) was > 50 µg/mL.

And the IC80 (Titer in TZM.bl cells) [9]?
The IC80 (Titer in TZM.bl cells) was > 50 µg/mL.

What about the IC50 (Titer in TZM.bl cells) [10] of the same substance?
Its IC50 (Titer in TZM.bl cells) is < 1 ng/mL.

And the IC80 (Titer in TZM.bl cells) [10]?
Its IC80 (Titer in TZM.bl cells) is 5 ng/mL.

And the IC50 (Titer in TZM.bl cells) [11]?
Its IC50 (Titer in TZM.bl cells) is 4.82 µg/mL.

What about the IC80 (Titer in TZM.bl cells) [11] of the same substance?
The IC80 (Titer in TZM.bl cells) was > 50 µg/mL.

And the IC50 (Titer in TZM.bl cells) [12]?
Its IC50 (Titer in TZM.bl cells) is > 50 µg/mL.

And the IC80 (Titer in TZM.bl cells) [12]?
The IC80 (Titer in TZM.bl cells) was > 50 µg/mL.

What about the neutralization IC50 [13] of the same substance?
The neutralization IC50 was > 50 µg/mL.

What about the neutralization IC80 [13] of the same substance?
The neutralization IC80 was > 50 µg/mL.

What about the neutralization IC50 [14] of the same substance?
Its neutralization IC50 is > 50 µg/mL.

What about the neutralization IC80 [14] of the same substance?
The neutralization IC80 was > 50 µg/mL.

And the neutralization IC50 [15]?
The neutralization IC50 was 0.01 µg/mL.

What about the neutralization IC80 [15] of the same substance?
The neutralization IC80 was 0.049 µg/mL.

What about the neutralization IC50 [16] of the same substance?
The neutralization IC50 was 13.8 µg/mL.

What about the neutralization IC80 [16] of the same substance?
Its neutralization IC80 is > 50 µg/mL.

And the IC50 (Titer in TZM.bl cells) [17]?
The IC50 (Titer in TZM.bl cells) was 0.019 µg/mL.

What about the IC80 (Titer in TZM.bl cells) [17] of the same substance?
The IC80 (Titer in TZM.bl cells) was 0.052 µg/mL.

What about the neutralization IC50 [18] of the same substance?
The neutralization IC50 was > 50 µg/mL.

And the neutralization IC80 [18]?
The neutralization IC80 was > 50 µg/mL.

What about the neutralization IC50 [19] of the same substance?
Its neutralization IC50 is > 50 µg/mL.

What about the neutralization IC80 [19] of the same substance?
Its neutralization IC80 is > 50 µg/mL.

What about the neutralization IC50 [20] of the same substance?
The neutralization IC50 was 0.013 µg/mL.

What about the neutralization IC80 [20] of the same substance?
Its neutralization IC80 is 0.038 µg/mL.

And the neutralization IC50 [21]?
The neutralization IC50 was > 50 µg/mL.

And the neutralization IC80 [21]?
Its neutralization IC80 is > 50 µg/mL.

And the neutralization IC50 [22]?
The neutralization IC50 was > 50 µg/mL.

What about the neutralization IC80 [22] of the same substance?
Its neutralization IC80 is > 50 µg/mL.

And the neutralization IC50 [23]?
The neutralization IC50 was 0.026 µg/mL.

And the neutralization IC80 [23]?
The neutralization IC80 was 0.095 µg/mL.

What about the IC50 (Titer in TZM.bl cells) [24] of the same substance?
Its IC50 (Titer in TZM.bl cells) is 0.019 µg/mL.

What about the IC80 (Titer in TZM.bl cells) [24] of the same substance?
The IC80 (Titer in TZM.bl cells) was 0.088 µg/mL.

What about the neutralization IC50 [25] of the same substance?
Its neutralization IC50 is 9 ng/mL.

What about the neutralization IC80 [25] of the same substance?
Its neutralization IC80 is 0.024 µg/mL.

What about the neutralization IC50 [26] of the same substance?
The neutralization IC50 was > 50 µg/mL.

And the neutralization IC80 [26]?
Its neutralization IC80 is > 50 µg/mL.

What about the neutralization IC50 [27] of the same substance?
Its neutralization IC50 is 0.026 µg/mL.

What about the neutralization IC80 [27] of the same substance?
Its neutralization IC80 is 0.109 µg/mL.

What about the neutralization IC50 [28] of the same substance?
The neutralization IC50 was 1.08 µg/mL.

What about the neutralization IC80 [28] of the same substance?
The neutralization IC80 was 18.4 µg/mL.

What about the neutralization IC50 [29] of the same substance?
The neutralization IC50 was < 1 ng/mL.

And the neutralization IC80 [29]?
The neutralization IC80 was 7 ng/mL.

And the IC50 (Titer in TZM.bl cells) [30]?
The IC50 (Titer in TZM.bl cells) was > 50 µg/mL.

And the IC80 (Titer in TZM.bl cells) [30]?
The IC80 (Titer in TZM.bl cells) was > 50 µg/mL.

And the neutralization IC50 [31]?
Its neutralization IC50 is > 50 µg/mL.

And the neutralization IC80 [31]?
Its neutralization IC80 is > 50 µg/mL.

What about the neutralization IC50 [32] of the same substance?
Its neutralization IC50 is 0.018 µg/mL.

And the neutralization IC80 [32]?
The neutralization IC80 was 0.041 µg/mL.

What about the neutralization IC50 [33] of the same substance?
The neutralization IC50 was 0.032 µg/mL.

And the neutralization IC80 [33]?
The neutralization IC80 was 0.153 µg/mL.

What about the neutralization IC50 [34] of the same substance?
Its neutralization IC50 is > 50 µg/mL.

What about the neutralization IC80 [34] of the same substance?
The neutralization IC80 was > 50 µg/mL.

What about the neutralization IC50 [35] of the same substance?
Its neutralization IC50 is 1.5 µg/mL.

What about the neutralization IC80 [35] of the same substance?
The neutralization IC80 was 29.4 µg/mL.

What about the neutralization IC50 [36] of the same substance?
Its neutralization IC50 is > 50 µg/mL.

And the neutralization IC80 [36]?
Its neutralization IC80 is > 50 µg/mL.

And the neutralization IC50 [37]?
Its neutralization IC50 is > 50 µg/mL.

And the neutralization IC80 [37]?
Its neutralization IC80 is > 50 µg/mL.
